Test results from PMC4844422, “Activity Regulation by Heteromerization of Arabidopsis Allene Oxide Cyclase Family Members” (Plants, 2016).

Target: the molecule itself
Assay: SDS-PAGE after mild SDS treatment (SDS-stable oligomer); purified His-tagged protein treated with 1% SDS for 5 min at room temperature or 42 °C, 12% SDS-PAGE, anti-His-tag immunoblot; trimer at about 65 kDa, monomer 26 kDa

Row | Protein | stoichiometry N
1 | Arabidopsis allene oxide cyclase 2 (AOC2), recombinant, with N-terminal His-tag (enzyme, Arabidopsis thaliana, UniProt Q9LS02 78-253, looked up, also called AtAOC2; hAOC2; source: E. coli M15 (pQE30), purified (Ni-NTA-agarose); not shown: His-tag, N-terminal, kept) PSKVQELSVYEINELDRHSPKILKNAFSLMFGLGDLVPFTNKLYTGDLKKRVGITAGLCVVIEHVPEKKGERFEATYSFYFGDYGHLSVQGPYLTYEDSFLAITGGAGIFEGAYGQVKLQQLVYPTKLFYTFYLKGLANDLPLELTGTPVPPSKDIEPAPEAKALEPSGVISNYTN | 3
2 | Arabidopsis allene oxide cyclase 2 (AOC2), recombinant, with C-terminal His-tag (enzyme, Arabidopsis thaliana, UniProt Q9LS02 78-253, looked up, also called AtAOC2; source: E. coli M15 (pQE60), purified (Ni-NTA-agarose); not shown: His-tag, C-terminal, kept) PSKVQELSVYEINELDRHSPKILKNAFSLMFGLGDLVPFTNKLYTGDLKKRVGITAGLCVVIEHVPEKKGERFEATYSFYFGDYGHLSVQGPYLTYEDSFLAITGGAGIFEGAYGQVKLQQLVYPTKLFYTFYLKGLANDLPLELTGTPVPPSKDIEPAPEAKALEPSGVISNYTN | 3
